Measured values from paper PMC4301919, “Helical Defects in MicroRNA Influence Protein Binding by TAR RNA Binding Protein”.
Numbering of substitutions follows the chain as printed.

What was measured:
[1] = molecular target: T1, TRBP-ΔC (UniProt Q15633-2 9-215); test: EMSA; apparent Kd; nH 3.2 (1.4 in loop section); 50 mM sodium cacodylate pH 7.0, 50 mM potassium glutamate, 5% glycerol; EMSA 0.5 pM RNA, 30 min at room temperature, gel 0.25X TBE at 10 C; CD at 10 C with 5-15 uM RNA; conditions: protein: recombinant; label: 5'-32P top strand (EMSA); blunt
T1 sequence: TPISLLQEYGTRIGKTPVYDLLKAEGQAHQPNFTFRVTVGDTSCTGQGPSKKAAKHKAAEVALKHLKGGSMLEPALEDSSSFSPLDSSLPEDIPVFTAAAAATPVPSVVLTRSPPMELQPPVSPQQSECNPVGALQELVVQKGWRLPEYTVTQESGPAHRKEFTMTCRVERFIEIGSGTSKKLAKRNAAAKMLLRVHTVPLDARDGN

[2] = molecular target: T1, TRBP-ΔC; test: EMSA; apparent Kd; nH 2.5; 50 mM sodium cacodylate pH 7.0, 50 mM potassium glutamate, 5% glycerol; EMSA 0.5 pM RNA, 30 min at room temperature, gel 0.25X TBE at 10 C; CD at 10 C with 5-15 uM RNA; conditions: protein: recombinant; label: 5'-32P; hairpin, 16 bp stem, U8 loop
[3] = molecular target: T2, TRBP-dsRBD2 (UniProt Q15633-2 139-215); test: EMSA; apparent Kd; nH >2; text says bound; 50 mM sodium cacodylate pH 7.0, 50 mM potassium glutamate, 5% glycerol; EMSA 0.5 pM RNA, 30 min at room temperature, gel 0.25X TBE at 10 C; CD at 10 C with 5-15 uM RNA; conditions: protein: recombinant, label: 5'-32P, hairpin, 16 bp stem
T2 sequence: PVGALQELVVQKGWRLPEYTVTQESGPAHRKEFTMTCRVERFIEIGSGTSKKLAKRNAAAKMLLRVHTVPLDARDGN

[4] = molecular target: T3, TRBP-dsRBD1 (UniProt Q15633-2 9-85); test: EMSA; apparent Kd; nH 1.3; 50 mM sodium cacodylate pH 7.0, 50 mM potassium glutamate, 5% glycerol; EMSA 0.5 pM RNA, 30 min at room temperature, gel 0.25X TBE at 10 C; CD at 10 C with 5-15 uM RNA; conditions: protein: recombinant, label: 5'-32P, hairpin, 16 bp stem
T3 sequence: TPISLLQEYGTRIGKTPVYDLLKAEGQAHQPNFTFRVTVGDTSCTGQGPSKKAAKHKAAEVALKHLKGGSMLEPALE

[5] = molecular target: T3, TRBP-dsRBD1; test: EMSA; apparent Kd; nH 2.9; 50 mM sodium cacodylate pH 7.0, 50 mM potassium glutamate, 5% glycerol; EMSA 0.5 pM RNA, 30 min at room temperature, gel 0.25X TBE at 10 C; CD at 10 C with 5-15 uM RNA; conditions: protein: recombinant; label: 5'-32P top strand (EMSA); blunt
[6] = molecular target: T2, TRBP-dsRBD2; test: EMSA; apparent Kd; nH 3.1; 50 mM sodium cacodylate pH 7.0, 50 mM potassium glutamate, 5% glycerol; EMSA 0.5 pM RNA, 30 min at room temperature, gel 0.25X TBE at 10 C; CD at 10 C with 5-15 uM RNA; conditions: protein: recombinant; label: 5'-32P top strand (EMSA); blunt
[7] = molecular target: T1, TRBP-ΔC; test: EMSA; apparent Kd; nH >12; 50 mM sodium cacodylate pH 7.0, 50 mM potassium glutamate, 5% glycerol; EMSA 0.5 pM RNA, 30 min at room temperature, gel 0.25X TBE at 10 C; CD at 10 C with 5-15 uM RNA; conditions: protein: recombinant; label: 5'-32P top strand (EMSA); blunt
[8] = molecular target: T1, TRBP-ΔC; test: EMSA; apparent Kd; nH 3.1; 50 mM sodium cacodylate pH 7.0, 50 mM potassium glutamate, 5% glycerol; EMSA 0.5 pM RNA, 30 min at room temperature, gel 0.25X TBE at 10 C; CD at 10 C with 5-15 uM RNA; conditions: protein: recombinant; label: 5'-32P; hairpin, 16 bp stem, U6 loop
[9] = molecular target: T3, TRBP-dsRBD1; test: EMSA; apparent Kd; nH 1.0; 50 mM sodium cacodylate pH 7.0, 50 mM potassium glutamate, 5% glycerol; EMSA 0.5 pM RNA, 30 min at room temperature, gel 0.25X TBE at 10 C; CD at 10 C with 5-15 uM RNA; conditions: protein: recombinant, label: 5'-32P, hairpin, 16 bp stem
[10] = molecular target: T1, TRBP-ΔC; test: EMSA; apparent Kd; nH 1.6; 50 mM sodium cacodylate pH 7.0, 50 mM potassium glutamate, 5% glycerol; EMSA 0.5 pM RNA, 30 min at room temperature, gel 0.25X TBE at 10 C; CD at 10 C with 5-15 uM RNA; conditions: protein: recombinant; label: 5'-32P; hairpin with 1-nt U-bulge and A-A mismatch
[11] = molecular target: T1, TRBP-ΔC; test: EMSA; apparent Kd; nH 2.7; 50 mM sodium cacodylate pH 7.0, 50 mM potassium glutamate, 5% glycerol; EMSA 0.5 pM RNA, 30 min at room temperature, gel 0.25X TBE at 10 C; CD at 10 C with 5-15 uM RNA; conditions: protein: recombinant; label: 5'-32P top strand; duplex with 1x1 A-A mismatch
[12] = molecular target: T1, TRBP-ΔC; test: EMSA; apparent Kd; nH 5; 50 mM sodium cacodylate pH 7.0, 50 mM potassium glutamate, 5% glycerol; EMSA 0.5 pM RNA, 30 min at room temperature, gel 0.25X TBE at 10 C; CD at 10 C with 5-15 uM RNA; conditions: protein: recombinant; label: 5'-32P top strand; duplex with 1-nt U-bulge
[13] = molecular target: T1, TRBP-ΔC; test: EMSA; apparent Kd; nH 1.1; text gives error 0.1; 50 mM sodium cacodylate pH 7.0, 50 mM potassium glutamate, 5% glycerol; EMSA 0.5 pM RNA, 30 min at room temperature, gel 0.25X TBE at 10 C; CD at 10 C with 5-15 uM RNA; conditions: protein: recombinant; label: 5'-32P top strand; imperfect duplex with U-bulge and A-A mismatch
[14] = molecular target: T1, TRBP-ΔC; test: EMSA; apparent Kd; nH 1.9; 50 mM sodium cacodylate pH 7.0, 50 mM potassium glutamate, 5% glycerol; EMSA 0.5 pM RNA, 30 min at room temperature, gel 0.25X TBE at 10 C; CD at 10 C with 5-15 uM RNA; conditions: protein: recombinant; label: 5'-32P top strand (EMSA); blunt
[15] = molecular target: T1, TRBP-ΔC; test: EMSA; apparent Kd; nH 1.1; 50 mM sodium cacodylate pH 7.0, 50 mM potassium glutamate, 5% glycerol; EMSA 0.5 pM RNA, 30 min at room temperature, gel 0.25X TBE at 10 C; CD at 10 C with 5-15 uM RNA; conditions: protein: recombinant; label: 5'-32P; hairpin, 16 bp stem, UUCG loop
[16] = molecular target: T2, TRBP-dsRBD2; test: EMSA; apparent Kd; nH 2.4; 50 mM sodium cacodylate pH 7.0, 50 mM potassium glutamate, 5% glycerol; EMSA 0.5 pM RNA, 30 min at room temperature, gel 0.25X TBE at 10 C; CD at 10 C with 5-15 uM RNA; conditions: protein: recombinant; label: 5'-32P; hairpin, 16 bp stem, UUCG loop
[17] = molecular target: T2, TRBP-dsRBD2; test: EMSA; apparent Kd; nH 2.7; 50 mM sodium cacodylate pH 7.0, 50 mM potassium glutamate, 5% glycerol; EMSA 0.5 pM RNA, 30 min at room temperature, gel 0.25X TBE at 10 C; CD at 10 C with 5-15 uM RNA; conditions: protein: recombinant
[18] = molecular target: T1, TRBP-ΔC; test: EMSA; apparent Kd; nH 4.1; 50 mM sodium cacodylate pH 7.0, 50 mM potassium glutamate, 5% glycerol; EMSA 0.5 pM RNA, 30 min at room temperature, gel 0.25X TBE at 10 C; CD at 10 C with 5-15 uM RNA; conditions: protein: recombinant; label: 5'-32P; hairpin, 16 bp stem, U4 loop
[19] = molecular target: T3, TRBP-dsRBD1; test: EMSA; apparent Kd; nH 2.6; 50 mM sodium cacodylate pH 7.0, 50 mM potassium glutamate, 5% glycerol; EMSA 0.5 pM RNA, 30 min at room temperature, gel 0.25X TBE at 10 C; CD at 10 C with 5-15 uM RNA; conditions: protein: recombinant; label: 5'-32P top strand (EMSA); blunt
[20] = molecular target: T1, TRBP-ΔC; test: EMSA; apparent Kd; nH >14; 50 mM sodium cacodylate pH 7.0, 50 mM potassium glutamate, 5% glycerol; EMSA 0.5 pM RNA, 30 min at room temperature, gel 0.25X TBE at 10 C; CD at 10 C with 5-15 uM RNA; conditions: protein: recombinant; label: 5'-32P top strand (EMSA); blunt
[21] = molecular target: T2, TRBP-dsRBD2; test: EMSA; apparent Kd; nH 4.3; 50 mM sodium cacodylate pH 7.0, 50 mM potassium glutamate, 5% glycerol; EMSA 0.5 pM RNA, 30 min at room temperature, gel 0.25X TBE at 10 C; CD at 10 C with 5-15 uM RNA; conditions: protein: recombinant; label: 5'-32P top strand (EMSA); blunt
[22] = molecular target: T1, TRBP-ΔC; test: EMSA; apparent Kd; nH 4; 50 mM sodium cacodylate pH 7.0, 50 mM potassium glutamate, 5% glycerol; EMSA 0.5 pM RNA, 30 min at room temperature, gel 0.25X TBE at 10 C; CD at 10 C with 5-15 uM RNA; conditions: protein: recombinant; label: 5'-32P top strand (EMSA); blunt
[23] = molecular target: T3, TRBP-dsRBD1; test: EMSA; apparent Kd; nH 1.5; 50 mM sodium cacodylate pH 7.0, 50 mM potassium glutamate, 5% glycerol; EMSA 0.5 pM RNA, 30 min at room temperature, gel 0.25X TBE at 10 C; CD at 10 C with 5-15 uM RNA; conditions: protein: recombinant; label: 5'-32P top strand (EMSA); blunt

B1: ds16 (dsRNA)
RNA 1: GUCAGCAGUGCCUUAG
RNA 2: CUAAGGCACUGCUGAC
Kd [1]: 800 ± 70 nM

B2: ds16-octa-U (structured_RNA)
RNA: GUCAGCAGUGCCUUAGUUUUUUUUCUAAGGCACUGCUGAC
Kd [2]: 410 ± 50 nM
Kd ([3]; U8 loop): > 6 µM
Kd ([4]; U8 loop): 8 ± 3 µM

B3: ds33 (dsRNA)
RNA 1: GGUCAGCAGUGCCUUAGCAGCACGUAAAUAUGG
RNA 2: CCAUAUUUACGUGCUGCUAAGGCACUGCUGACC
Kd [5]: 900 ± 300 nM
Kd [6]: 1000 ± 80 nM
Kd [7]: 200 ± 20 nM

B4: ds16-hexa-U (structured_RNA)
RNA: GUCAGCAGUGCCUUAGUUUUUUCUAAGGCACUGCUGAC
Kd [8]: 610 ± 50 nM
Kd ([3]; U6 loop): > 4 µM
Kd ([9]; U6 loop): 10 ± 3 µM

B5: pre-mir-16-1 (structured_RNA)
RNA: UAGCAGCACGUAAAUAUUGGCGUUAAGAUUCUAAAAUUAUCUCCAGUAUUAACUGUGCUGCUGAA
Kd [10]: 610 ± 20 nM

B6: A-mismatch (dsRNA)
RNA 1: GGUCAGCACGUAAAUAUUGUCC
RNA 2: GGACAGUAUUAACGUGCUGUAC
Kd [11]: 1780 ± 80 nM

B7: U-bulge (dsRNA)
RNA 1: GGUCAGCACGUAAAUAUUGUCC
RNA 2: GGACAGUAUUUACUGUGCUGAUC
Kd [12]: 300 ± 30 nM

B8: miR-16-1/miR-16-1* (dsRNA)
RNA 1: UAGCAGCACGUAAAUAUUGGCG
RNA 2: CCAGUAUUAACUGUGCUGCUGAA
Kd [13]: 1100 ± 10 nM

B9: ds12 (dsRNA)
RNA 1: GUCAGCAGUGCC
RNA 2: GGCACUGCUGAC
Kd [14]: 2000 ± 300 nM

B10: ds16-tetra-stable (structured_RNA)
RNA: GUCAGCAGUGCCUUAGUUCGCUAAGGCACUGCUGAC
Kd [15]: 500 ± 50 nM
Kd [16]: 5 ± 0.7 µM
Kd ([4]; UUCG loop): 9 ± 1 µM

B11: ds16-tetra-U (structured_RNA)
RNA: B10 RNA with C19U, G20U
Kd ([17]; label: 5'-32P, hairpin, 16 bp stem, U4 loop): 4000 ± 900 nM
Kd ([9]; U4 loop): 7 ± 0.9 µM
Kd [18]: 700 ± 50 nM

B12: ds44 (dsRNA)
RNA 1: GGUCAGCAGUGCCUUAGCAGCACGUAAAUAUUGGCGUUAAGACC
RNA 2: GGUCUUAACGCCAAUAUUUACGUGCUGCUAAGGCACUGCUGACC
Kd [19]: 800 ± 50 nM
Kd [20]: 60 ± 10 nM
Kd [21]: 800 ± 60 nM

B13: ds22 (dsRNA)
RNA 1: GUCAGCAGUGCCUUAGCAGCAC
RNA 2: GUGCUGCUAAGGCACUGCUGAC
Kd ([17]; label: 5'-32P top strand (EMSA), blunt): 1700 ± 100 nM
Kd [22]: 600 ± 50 nM
Kd [23]: 3.5 ± 0.2 µM
